US20100260668A1 (published 2010)

target: VEGF (VEGF 1-165 aa, R&D Systems 293-VE-010) (UniProt P15692 27-191); assay: Direct bind ELISA, VEGF coated on plate;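 note: ELISA screening of antibodies for binding to the plate-coated target antigen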
Sequence (P15692 other isoform, or with tags, fused parts or gaps limits assumed): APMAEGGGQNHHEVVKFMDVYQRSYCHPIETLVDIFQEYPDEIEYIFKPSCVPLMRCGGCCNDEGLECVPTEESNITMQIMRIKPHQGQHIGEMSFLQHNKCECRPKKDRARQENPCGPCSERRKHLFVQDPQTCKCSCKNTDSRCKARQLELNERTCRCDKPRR

EC50 [nM]	Binder
17.9	DVD474 (bispecific antibody, IgG1, DVD-Ig, outer AB071 / inner AB015; HC linker long, LC linker long; also called DVD474H; DVD474L) VH: EVQLVESGGGLVQPGGSLRLSCAASGFTINASWIHWVRQAPGKGLEWVGAIYPYSGYTNYADSVKGRFTISADTSKNTAYLQMNSLRAEDTAVYYCARWGHSTSPWAMDYWGQGTLVTVSSASTKGPSVFPLAPEVQLVESGGGLVQPGGSLRLSCAASGFTFTDNWISWVRQAPGKGLEWVGYISPNSGFTYYADSVKGRFTISADTSKNTAYLQMNSLRAEDTAVYYCARDNFGGYFDYWGQGTLVTVSS VL: DIQMTQSPSSLSASVGDRVTITCRASQVIRRSLAWYQQKPGKAPKLLIYAASNLASGVPSRFSGSGSGTDFTLTISSLQPEDFATYYCQQSNTSPLTFGQGTKVEIKRTVAAPSVFIFPPDIQMTQSPSSLSASVGDRVTITCRASQDVSTAVAWYQQKPGKAPKLLIYSASFLYSGVPSRFSGSGSGTDFTLTISSLQPEDFATTYYCQQSYTGTVTFGQGTKVEIKR
1810	DVD467 (bispecific antibody, IgG1, DVD-Ig, outer AB015 / inner AB071; HC linker short, LC linker short; also called DVD467H; DVD467L) VH: EVQLVESGGGLVQPGGSLRLSCAASGFTFTDNWISWVRQAPGKGLEWVGYISPNSGFTYYADSVKGRFTISADTSKNTAYLQMNSLRAEDTAVYYCARDNFGGYFDYWGQGTLVTVSSASTKGPEVQLVESGGGLVQPGGSLRLSCAASGFTINASWIHWVRQAPGKGLEWVGAIYPYSGYTNYADSVKGRFTISADTSKNTAYLQMNSLRAEDTAVYYCARWGHSTSPWAMDYWGQGTLVTVSS VL: DIQMTQSPSSLSASVGDRVTITCRASQDVSTAVAWYQQKPGKAPKLLIYSASFLYSGVPSRFSGSGSGTDFTLTISSLQPEDFATTYYCQQSYTGTVTFGQGTKVEIKRTVAAPDIQMTQSPSSLSASVGDRVTITCRASQVIRRSLAWYQQKPGKAPKLLIYAASNLASGVPSRFSGSGSGTDFTLTISSLQPEDFATYYCQQSNTSPLTFGQGTKVEIKR
25.6	DVD468 (bispecific antibody, IgG1, DVD-Ig, outer AB071 / inner AB015; HC linker short, LC linker short; also called DVD468H; DVD468L) VH: EVQLVESGGGLVQPGGSLRLSCAASGFTINASWIHWVRQAPGKGLEWVGAIYPYSGYTNYADSVKGRFTISADTSKNTAYLQMNSLRAEDTAVYYCARWGHSTSPWAMDYWGQGTLVTVSSASTKGPEVQLVESGGGLVQPGGSLRLSCAASGFTFTDNWISWVRQAPGKGLEWVGYISPNSGFTYYADSVKGRFTISADTSKNTAYLQMNSLRAEDTAVYYCARDNFGGYFDYWGQGTLVTVSS VL: DIQMTQSPSSLSASVGDRVTITCRASQVIRRSLAWYQQKPGKAPKLLIYAASNLASGVPSRFSGSGSGTDFTLTISSLQPEDFATYYCQQSNTSPLTFGQGTKVEIKRTVAAPDIQMTQSPSSLSASVGDRVTITCRASQDVSTAVAWYQQKPGKAPKLLIYSASFLYSGVPSRFSGSGSGTDFTLTISSLQPEDFATTYYCQQSYTGTVTFGQGTKVEIKR
388	DVD473 (bispecific antibody, IgG1, DVD-Ig, outer AB015 / inner AB071; HC linker long, LC linker long; also called DVD473H; DVD473L) VH: EVQLVESGGGLVQPGGSLRLSCAASGFTFTDNWISWVRQAPGKGLEWVGYISPNSGFTYYADSVKGRFTISADTSKNTAYLQMNSLRAEDTAVYYCARDNFGGYFDYWGQGTLVTVSSASTKGPSVFPLAPEVQLVESGGGLVQPGGSLRLSCAASGFTINASWIHWVRQAPGKGLEWVGAIYPYSGYTNYADSVKGRFTISADTSKNTAYLQMNSLRAEDTAVYYCARWGHSTSPWAMDYWGQGTLVTVSS VL: DIQMTQSPSSLSASVGDRVTITCRASQDVSTAVAWYQQKPGKAPKLLIYSASFLYSGVPSRFSGSGSGTDFTLTISSLQPEDFATTYYCQQSYTGTVTFGQGTKVEIKRTVAAPSVFIFPPDIQMTQSPSSLSASVGDRVTITCRASQVIRRSLAWYQQKPGKAPKLLIYAASNLASGVPSRFSGSGSGTDFTLTISSLQPEDFATYYCQQSNTSPLTFGQGTKVEIKR
